In assay [1] the target is T1, human NT5E expressed on MDA-MB-231 cells (human, UniProt P21589 27-549).
T1 construct: whole, on cells; also called NT5E-expressing MDA-MB-231 cells; CD73
T1 sequence (looked up): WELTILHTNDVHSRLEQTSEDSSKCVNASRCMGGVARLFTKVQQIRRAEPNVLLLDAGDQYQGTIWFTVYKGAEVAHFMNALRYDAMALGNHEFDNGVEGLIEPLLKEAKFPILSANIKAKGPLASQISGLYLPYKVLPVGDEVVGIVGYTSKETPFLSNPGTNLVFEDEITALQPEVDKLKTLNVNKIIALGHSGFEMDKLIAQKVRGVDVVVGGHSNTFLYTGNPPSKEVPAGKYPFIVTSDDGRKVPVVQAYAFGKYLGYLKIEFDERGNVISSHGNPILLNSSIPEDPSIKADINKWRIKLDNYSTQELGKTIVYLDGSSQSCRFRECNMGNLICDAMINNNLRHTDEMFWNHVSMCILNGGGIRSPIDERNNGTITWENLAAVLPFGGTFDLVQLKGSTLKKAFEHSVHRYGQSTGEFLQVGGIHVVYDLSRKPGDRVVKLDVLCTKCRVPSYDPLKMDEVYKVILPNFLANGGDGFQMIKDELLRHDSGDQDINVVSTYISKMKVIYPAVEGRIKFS
The experiment in a line: flow cytometry on MDA-MB-231 cells, 1 mM ATP. The protocol: (§1) Flow cytometry analysis of antibodies binding to human NT5E expressed on MDA-MB-231 cells in ATP-free condition (black) or in 1 mM ATP (red). Top panel: (left) 1780 Fab and (right) 1780 IgG titrations. […] Binding was measured at the indicated range of antibody concentrations and is expressed as mean±st. dev of median fluorescence intensity (MFI) of 1-2 replicates. Data were analyzed using OriginLab, and EC₅₀ values are shown next to the fitted curves.
(§2) Human MDA-MB-231 cells and murine 4T1 cells were grown to 90% confluency, detached with 5 mM EDTA for 15 min at 37° C. and then resuspended in 37° C. lx PBS (#10010031, Gibco) supplemented with 1% FBS and 1OpM ZnCl2. Separate working buffers (WB) of PBS and 1% FBS with or without fixed nucleotide concentrations were used throughout all washing steps to maintain constant condition. In 96-well plates (#3799, Costar), 0.2×10⁶ cells were added per well. The plates were spun at 500×g for 5 min and the supernatant was removed. Anti-NT5E antibodies were diluted to the desired concentration in 100 μL WB, added to the cells and the plates were incubated for 20 min at 37° C. Plates were spun and cells were washed twice with WB then spun a second time. Cells were stained with 100 μL of secondary antibody (Alexa Fluor 647 AffiniPure Goat Anti-Human IgG, F(ab′)2 fragment specific, #109-605-006, Jackson, 1:200) dilution and plates were incubated for 20 min at 37° C. Cells were washed twice with WB then fixed on ice with WB supplemented with 0.5% PFA. Fixing solution was removed by centrifugation and cells were resuspended in cold 1× PBS. Samples were analyzed by flow cytometry using CytoFLEX (Beckman Coulter) and mean fluorescence intensity (MFI) data was extracted using FlowJo software. Resulting binding data was plotted using OriginLab.
Background: Flow cytometry measures light scatter and fluorescence of single cells or particles in a stream.

The target in assay [2] is T1, human NT5E expressed on MDA-MB-231 cells. The assay can be described thus: flow cytometry on MDA-MB-231 cells, 1 mM ATP. As to the method: as §1, §2
This is another data set of the same source.

The target in assay [3] is T2, murine NT5E expressed on 4T1 cells (murine, UniProt Q61503 29-551).
T2 construct: whole, on cells; also called mouse NT5E-expressing 4T1 cells
T2 sequence (looked up): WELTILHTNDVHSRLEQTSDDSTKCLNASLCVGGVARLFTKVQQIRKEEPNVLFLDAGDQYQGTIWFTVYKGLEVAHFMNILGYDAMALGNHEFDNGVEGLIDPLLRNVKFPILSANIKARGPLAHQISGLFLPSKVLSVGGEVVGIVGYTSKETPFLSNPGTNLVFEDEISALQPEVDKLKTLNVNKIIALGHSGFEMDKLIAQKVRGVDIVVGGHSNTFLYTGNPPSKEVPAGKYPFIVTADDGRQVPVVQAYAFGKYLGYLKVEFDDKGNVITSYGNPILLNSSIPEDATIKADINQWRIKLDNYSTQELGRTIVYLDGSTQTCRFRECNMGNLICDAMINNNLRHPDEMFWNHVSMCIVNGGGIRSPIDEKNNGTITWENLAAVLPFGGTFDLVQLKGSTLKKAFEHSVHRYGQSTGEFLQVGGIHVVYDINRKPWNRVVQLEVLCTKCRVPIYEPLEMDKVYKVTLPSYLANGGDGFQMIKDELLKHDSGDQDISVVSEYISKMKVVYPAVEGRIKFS
The assay can be described thus: flow cytometry on 4T1 cells, single Fab concentration, -ATP. The protocol: as §2

Where two headings read alike, the source gives them in different places.

The record followed here is patent US20240199757A1 (UNIVERSITY OF CHICAGO, published 2024).

B1: 1780 Fab (Fab, V domains shown)
VH: EVQLVESGGGLVQPGGSLRLSCAASGFNFYSYSIHWVRQAPGKGLEWVASISSSSGYTYYADSVKGRFTISADTSKNTAYLQMNSLRAEDTAVYYCARYSWWGWHMEGWWGYMNAFDYWGQGTLVTV
VL: DIQMTQSPSSLSASVGDRVTITCRASQSVSSAVAWYQQKPGKAPKLLIYSASSLYSGVPSRFSGSRSGTDFTLTISSLQPEDFATYYCQQAHPKPITFGQGTKVEIKR
One may read the EC50 as the concentration at which the effect is half-maximal. A low value points to an effect from little substance. For the molecule B1, the EC50 in assay [1] worked out at 37 nM; in assay [2], 40.8 nM. Also, in assay [3], the binding result is “no binding (tested: 200 nM)”.
